Data taken from the RNAGym collection of RNA variant scans (doi:10.7554/elife.80360).

B1: Hammerhead Ribozyme (parent)
chain: ACCGGAUGUGCUUUCCGGUCUGAUGAGUCCGUGAGGACGAAACAG

Variants of: B1
Assay: self-cleavage, relative activity (ratio to wild type); higher = more cleavage; co-transcriptional
In the case of G33U G36U, the self-cleavage is reported as 0.618. G33U G36A showed a self-cleavage of 0.765. Variant G33U G36C has a self-cleavage of 0.623. Work on G33U G45C yielded a self-cleavage of 0.752. Work on G33U G45U yielded a self-cleavage of 0.912. In the case of G33U G45A, the self-cleavage is reported as 0.698. A34G A44C gave a self-cleavage of 0.41. In the case of A34G A44U, the self-cleavage is reported as 0.526. A34G A44G gave a self-cleavage of 1.23. With A34C A42U the self-cleavage was 0.322. A34C A42C showed a self-cleavage of 0.397. With A34C A42G the self-cleavage was 0.254. A34U A41U showed a self-cleavage of 0.281. A34U A41G showed a self-cleavage of 0.305. A34U A41C showed a self-cleavage of 0.289. A34U A42G gave a self-cleavage of 0.258. Work on A34U A42C yielded a self-cleavage of 0.3. A34U A42U gave a self-cleavage of 0.306. With A34C A40U the self-cleavage was 0.419. With A34C A40G the self-cleavage was 0.334. In the case of A34C A40C, the self-cleavage is reported as 0.316. A34G A40C showed a self-cleavage of 0.44. A34G A40G showed a self-cleavage of 0.345. A34G A40U showed a self-cleavage of 0.334. A34G A41C showed a self-cleavage of 0.302. Work on A34G A41G yielded a self-cleavage of 0.339. Variant A34G A41U has a self-cleavage of 0.284. In the case of G33C A41G, the self-cleavage is reported as 0.273. Variant G33C A41C has a self-cleavage of 0.432. G33C A41U gave a self-cleavage of 0.459. Work on A34U C38G yielded a self-cleavage of 0.403. A34U C38U gave a self-cleavage of 0.799. In the case of A34U C38A, the self-cleavage is reported as 0.409. For A34G A37C, the self-cleavage was 0.649. With A34G A37G the self-cleavage was 0.649. For A34G A37U, the self-cleavage was 0.47. In the case of G33U A40G, the self-cleavage is reported as 0.4. G33U A40U showed a self-cleavage of 0.391. Variant G33U A40C has a self-cleavage of 0.726. A34C C43A gave a self-cleavage of 0.309. A34C C43G showed a self-cleavage of 0.327. For A34C C43U, the self-cleavage was 0.287. For A34C G39U, the self-cleavage was 0.404. In the case of A34C G39A, the self-cleavage is reported as 0.288. A34C G39C gave a self-cleavage of 0.32. In the case of G33U C38U, the self-cleavage is reported as 0.995. Work on G33U C38A yielded a self-cleavage of 0.824. G33U C38G gave a self-cleavage of 0.67. For A34C A41U, the self-cleavage was 0.363. In the case of A34C A41C, the self-cleavage is reported as 0.354. A34C A41G showed a self-cleavage of 0.367. G33C C43U gave a self-cleavage of 0.308. Variant G33C C43A has a self-cleavage of 0.314. In the case of G33C C43G, the self-cleavage is reported as 0.28. A34G G35A gave a self-cleavage of 0.675. A34G G35C gave a self-cleavage of 0.771. Variant A34G G35U has a self-cleavage of 0.847. For A34G C38A, the self-cleavage was 0.349. For A34G C38G, the self-cleavage was 0.598. A34G C38U gave a self-cleavage of 1.13. Variant G33U A41U has a self-cleavage of 0.361. With G33U A41C the self-cleavage was 0.375. Variant G33U A41G has a self-cleavage of 0.354. With G33C G45C the self-cleavage was 0.46. Variant G33C G45A has a self-cleavage of 0.873. In the case of G33C G45U, the self-cleavage is reported as 0.874. In the case of G33U A37U, the self-cleavage is reported as 0.972. G33U A37C showed a self-cleavage of 1.04. For G33U A37G, the self-cleavage was 1.04. G33U G35C gave a self-cleavage of 0.964. Work on G33U G35U yielded a self-cleavage of 0.914. Work on G33U G35A yielded a self-cleavage of 0.774. For G33U, the self-cleavage was 0.977. G33C gave a self-cleavage of 0.997. Variant A34G G39U has a self-cleavage of 0.308. In the case of A34G G39C, the self-cleavage is reported as 0.338. In the case of A34G G39A, the self-cleavage is reported as 0.288. In the case of A34G G45A, the self-cleavage is reported as 0.589. A34G G45C gave a self-cleavage of 0.551. Variant A34G G45U has a self-cleavage of 0.544. Variant A34G G36C has a self-cleavage of 0.276. A34G G36A showed a self-cleavage of 0.51. For A34G G36U, the self-cleavage was 0.419. In the case of A34C C38U, the self-cleavage is reported as 0.758. For A34C C38A, the self-cleavage was 0.472. A34C C38G gave a self-cleavage of 0.436. A34C G45U gave a self-cleavage of 0.515. Variant A34C G45A has a self-cleavage of 0.524. For A34C G45C, the self-cleavage was 0.441. A34C G35U showed a self-cleavage of 0.58. A34C G35A showed a self-cleavage of 0.893. With A34C G35C the self-cleavage was 0.398. With G33C G39A the self-cleavage was 0.332. For G33C G39U, the self-cleavage was 0.364. Variant G33C G39C has a self-cleavage of 0.375. For A34U G35A, the self-cleavage was 0.638. Variant A34C G36U has a self-cleavage of 0.437. In the case of A34C G36A, the self-cleavage is reported as 0.345. A34C G36C gave a self-cleavage of 0.419. Variant G33C A34G has a self-cleavage of 1.19. Work on G33C A34U yielded a self-cleavage of 1.33. G33C A34C gave a self-cleavage of 0.801. Variant A34C A37U has a self-cleavage of 0.444. In the case of A34C A37G, the self-cleavage is reported as 0.588. In the case of A34C A37C, the self-cleavage is reported as 0.426. Work on A34U A37G yielded a self-cleavage of 0.757. A34U A37C gave a self-cleavage of 0.572. In the case of A34U A37U, the self-cleavage is reported as 0.412. In the case of G33C C38G, the self-cleavage is reported as 0.567. G33C C38A showed a self-cleavage of 0.493. With G33C C38U the self-cleavage was 1.12. With A34G C43A the self-cleavage was 0.32. In the case of A34G C43U, the self-cleavage is reported as 0.393. With A34G C43G the self-cleavage was 0.471. With A34G A42G the self-cleavage was 0.264. Variant A34G A42C has a self-cleavage of 0.294. Work on A34G A42U yielded a self-cleavage of 0.329. G33C G36A gave a self-cleavage of 0.491. Work on G33C G36C yielded a self-cleavage of 0.451. G33C G36U showed a self-cleavage of 0.338. G33C A44C gave a self-cleavage of 0.533. With G33C A44U the self-cleavage was 0.512. For G33C A44G, the self-cleavage was 1.13. With A34U A44C the self-cleavage was 0.447. A34U A44G showed a self-cleavage of 1.01. Variant A34U A44U has a self-cleavage of 0.437. In the case of G33U A34G, the self-cleavage is reported as 0.752. G33U A34U showed a self-cleavage of 0.952. Variant G33U A34C has a self-cleavage of 0.895. For G33A G45U, the self-cleavage was 0.955. Work on G33A G45C yielded a self-cleavage of 0.873. Variant G33U A44C has a self-cleavage of 0.596. Work on G33U A44G yielded a self-cleavage of 1.44. G33U A44U gave a self-cleavage of 0.87. With G33C A40G the self-cleavage was 0.339. Variant G33C A40C has a self-cleavage of 0.566. G33C A40U showed a self-cleavage of 0.409. For A34U C43G, the self-cleavage was 0.315. Work on A34U C43U yielded a self-cleavage of 0.304. A34U C43A showed a self-cleavage of 0.393. In the case of G33U G39U, the self-cleavage is reported as 0.343. For G33U G39C, the self-cleavage was 0.464. G33U G39A showed a self-cleavage of 0.341. In the case of A34C A44C, the self-cleavage is reported as 0.341. In the case of A34C A44U, the self-cleavage is reported as 0.512. Work on A34C A44G yielded a self-cleavage of 0.727. Variant G33U A42G has a self-cleavage of 0.312. With G33U A42U the self-cleavage was 0.371. For G33U A42C, the self-cleavage was 0.366. In the case of G33U C43A, the self-cleavage is reported as 0.466. With G33U C43G the self-cleavage was 0.449. In the case of G33U C43U, the self-cleavage is reported as 0.598. Work on A34U A40C yielded a self-cleavage of 0.404. For A34U A40G, the self-cleavage was 0.304. A34U A40U showed a self-cleavage of 0.305. Work on G33C A37C yielded a self-cleavage of 0.745. For G33C A37U, the self-cleavage was 0.565. Work on G33C A37G yielded a self-cleavage of 0.619. With A34G the self-cleavage was 0.902. Variant A34C has a self-cleavage of 0.909. A34U gave a self-cleavage of 0.926. G33C G35A showed a self-cleavage of 0.701. For G33C G35U, the self-cleavage was 0.795. G33C G35C showed a self-cleavage of 0.858. With G33C A42C the self-cleavage was 0.268. G33C A42U gave a self-cleavage of 0.28. G33C A42G gave a self-cleavage of 0.346.
